From doi:10.1101/2020.12.18.423418

Biological target: SARS-CoV-2 S1 protein containing a C-terminal His-tag (Acro; S1N-C52H3) (SARS-CoV-2) (UniProt P0DTC2)
Assay: flow cytometry on cells

## recombinant fragment of human surfactant protein D (rfhSP-D) (from UniProt P35247 199-375) (domain or fragment)
  percent reduction of S1 binding to ACE2 on cells at 10 μg/ml rfhSP-D: 35%
